# Reference: patent publication US20230330257A1 (BEIJING TIANNUOJIANCHENG PHARMA TECH, published 2023)
# Residue numbers refer to the chain shown, from its start.
# T1: human CD20 (human, UniProt P11836 1-297)
# T1 construct: whole, on cells; also called CD20 receptor; CHO-human CD20 (clone 3G6)
# T1 sequence (looked up): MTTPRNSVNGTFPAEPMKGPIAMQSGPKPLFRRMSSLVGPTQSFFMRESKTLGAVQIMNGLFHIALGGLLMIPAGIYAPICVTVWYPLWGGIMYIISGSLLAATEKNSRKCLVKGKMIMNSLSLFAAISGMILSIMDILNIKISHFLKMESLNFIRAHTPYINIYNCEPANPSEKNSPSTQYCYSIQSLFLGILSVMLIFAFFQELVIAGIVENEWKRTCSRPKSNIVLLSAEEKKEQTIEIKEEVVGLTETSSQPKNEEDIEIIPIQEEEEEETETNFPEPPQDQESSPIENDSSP
# T2: recombinant human CD3εγ-Fc heterodimer (human)
# T2 construct: Extracellular regions of CD3γ and CD3ε as Fc hole/knob heterodimer; also called human CD3εγ protein; recombinant human CD3γ/ε antigen
# T2 chain 1: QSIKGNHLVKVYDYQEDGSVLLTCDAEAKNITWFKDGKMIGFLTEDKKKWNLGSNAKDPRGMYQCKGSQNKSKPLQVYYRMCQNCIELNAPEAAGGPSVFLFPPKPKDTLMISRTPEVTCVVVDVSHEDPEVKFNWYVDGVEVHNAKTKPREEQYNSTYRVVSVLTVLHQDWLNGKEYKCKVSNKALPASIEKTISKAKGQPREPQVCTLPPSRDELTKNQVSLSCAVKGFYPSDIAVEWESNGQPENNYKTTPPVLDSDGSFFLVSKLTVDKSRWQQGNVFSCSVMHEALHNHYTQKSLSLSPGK
# T2 chain 2: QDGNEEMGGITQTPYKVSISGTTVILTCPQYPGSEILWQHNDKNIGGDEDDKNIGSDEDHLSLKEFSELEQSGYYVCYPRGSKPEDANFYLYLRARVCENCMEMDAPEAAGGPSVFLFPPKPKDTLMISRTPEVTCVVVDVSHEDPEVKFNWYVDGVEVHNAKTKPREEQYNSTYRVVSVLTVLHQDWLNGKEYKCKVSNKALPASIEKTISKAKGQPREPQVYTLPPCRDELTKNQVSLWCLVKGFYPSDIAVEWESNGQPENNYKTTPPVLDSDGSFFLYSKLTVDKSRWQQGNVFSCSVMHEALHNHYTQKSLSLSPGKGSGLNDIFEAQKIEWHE
# B1: Mab001 (antibody, V domains shown)
# VH: QVQLVQSGAEVKKPGSSVKVSCKASGYTFTSYNMHWVRQAPGQGLEWMGAIYPGNGDTSYNQKFQGRVTLTADKSSSTAYMELSSLRSEDTAVYYCARSTYYGGDWYFNVWGQGTLVTVSS
# VL: EIVLTQSPGTLSLSPGERATLSCRASSSVSYIHWFQQKPGQAPRPLIYATSNLASGIPDRFSGSGSGTDYTLTISRLEPEDFAVYYCQQWTSNPPTFGQGTKLEIK
# notes: also called humanized Mab001 antibody; humanized anti-CD20 antibody
# B2: Mab002 (antibody, V domains shown)
# VH: B1 VH with N109D, V110Y
# VL: B1 VL
# notes: also called humanized Mab002 antibody; humanized anti-CD20 antibody
# B3: Mab005 (antibody, V domains shown)
# VH: EVQLLESGGGLVQPGGSLRLSCAASGFTFNDYAMHWVRQAPGKGLEWVSTISWNSGSIGYADSVKGRFTISRDNSKNTLYLQMNSLRAEDTAVYYCAKDIQYGNYYYGMDVWGQGTLVTVSS
# VL: EIVLTQSPGTLSLSPGERATLSCRASQSVSSYLAWYQQKPGQAPRLLIYDASNRATGIPDRFSGSGSGTDFTLTISRLEPEDFAVYYCQQRSNWPITFGQGTKLEIK
# notes: also called humanized Mab005 antibody; humanized anti-CD20 antibody
# B4: Mab007 (antibody, V domains shown)
# VH: B3 VH with L11V, V111Y
# VL: B3 VL
# notes: also called humanized Mab007 antibody; humanized anti-CD20 antibody
# B5: Mab006 (antibody, V domains shown)
# VH: B3 VH with L11V
# VL: B3 VL
# notes: also called humanized Mab006 antibody; humanized anti-CD20 antibody
# B6: Mab004 (antibody, V domains shown)
# VH: B3 VH with S75A, N77K
# VL: B3 VL
# notes: also called humanized Mab004 antibody; humanized anti-CD20 antibody
# B7: aCD3-hVH9/VL2 (antibody, human IgG4, V domains shown)
# VH: EVQLVESGGGLVQPGGSLRLSCAASGFTFNTYAMNWVRKAPGKGLEWVGRIRSKYNNYATYYADSVKDRFTISRDDSKNSLYLQMNSLKTEDTAVYYCVRHGNFGNSYVSWFAYWGQGTLVTVSS
# VL: QAVVTQEPSLTVSPGGTVTLTCRSSTGAVTTSNYANWVQEKPGQAPRGLIGGTNKRAPWTPARFSGSLLGGKAALTLSGAQPEDEAEYYCALWYSNLWVFGGGTKLTVL
# notes: Expressed with an antibody lambda light chain constant region and human IgG4 heavy chain constant regions CH1-CH3; also called humanized anti-CD3 antibody hVH9/VL2
# B8: aCD3-hVH8/VL1 (antibody, human IgG4, V domains shown)
# VH: B7 VH with V99A
# VL: B7 VL with E40Q
# notes: Expressed with an antibody lambda light chain constant region and human IgG4 heavy chain constant regions CH1-CH3; also called humanized anti-CD3 antibody hVH8/VL1
# B9: aCD3-hVH8/VL5 (antibody, human IgG4, V domains shown)
# VH: B7 VH with V99A
# VL: B7 VL with L77I, S78T, P82A, A91V
# notes: Expressed with an antibody lambda light chain constant region and human IgG4 heavy chain constant regions CH1-CH3; also called aCD3-hVH8/VLS (so in the source)
# B10: aCD3-hVH9/VL5 (antibody, human IgG4, V domains shown)
# VH: B7 VH
# VL: B7 VL with L77I, S78T, P82A, A91V
# notes: Expressed with an antibody lambda light chain constant region and human IgG4 heavy chain constant regions CH1-CH3; also called humanized anti-CD3 antibody hVH9/VL5
# B11: aCD3-hVH1/VL5 (antibody, human IgG4, V domains shown)
# VH: B7 VH with K39Q, G49S, S80T
# VL: B7 VL with L77I, S78T, P82A, A91V
# notes: Expressed with an antibody lambda light chain constant region and human IgG4 heavy chain constant regions CH1-CH3; also called humanized anti-CD3 antibody hVH1/VL5
# B12: aCD3-hVH9/VL1 (antibody, human IgG4, V domains shown)
# VH: B7 VH
# VL: B7 VL with E40Q
# notes: Expressed with an antibody lambda light chain constant region and human IgG4 heavy chain constant regions CH1-CH3; also called humanized anti-CD3 antibody hVH9/VL1
# B13: aCD3-hVH9/VL3 (antibody, human IgG4, V domains shown)
# VH: B7 VH
# VL: B7 VL with Q1E, R23E, T26D, R56E
# notes: Expressed with an antibody lambda light chain constant region and human IgG4 heavy chain constant regions CH1-CH3; also called humanized anti-CD3 antibody hVH9/VL3
# Target: T1, human CD20
# Assay: flow cytometry on Raji cells, Alexa Fluor 647 goat anti-human IgG Fc
# Experimental: (§1) A lymphoma cell line Raji and Daudi cells in the logarithmic growth phase were taken, 200 μg/mL mouse IgG (Jackson ImmunoResearch) was added, and the mixture was blocked for 30 min. 5×10⁴ cells and 50 μL, of gradient-diluted antibody (the initial concentration of 200 nM, 5-fold dilution, a total of 8 gradients) were added to each well of a 96-well U-shaped plate, and incubated on ice for 45 min. After the cells were washed, 50 μL, of Alexa Fluro647-labelled goat anti-human IgG Fc (1: 300 dilution) was added to each well, and the mixture was incubated on ice for 45 min. 60 μL, of PI (Sigma, P4170) was added to each well, and the mixture was incubated for 5 min and detected by using a flow cytometer (iQue Screener).
row,Binder,binding result
1,B1,binds
2,B2,binds

# Target: T1, human CD20
# Assay: flow cytometry on Daudi cells, Alexa Fluor 647 goat anti-human IgG Fc
# Experimental: as §1
row,Binder,EC50 (read off the curve) [nM]
1,B3,~10
2,B4,~10
3,B5,~10
4,B6,~10

# Target: T2, recombinant human CD3εγ-Fc heterodimer
# Assay: ELISA, human CD3εγ protein coated on the plate, HRP goat anti-human IgG Fc, A450
# Experimental: Human CD3εγ protein was coated onto a plate and placed at 4° C. overnight.
row,Binder,EC50 (read off the curve) [nM]
1,B7,~0.6
2,B8,~0.6
3,B9,~0.6
4,B10,~0.5
5,B11,~0.6
6,B12,~0.6
7,B13,~0.6
